The results in this text go back to patent publication US6878804B1, “Synthesis of template-fixed β-hairpin loop mimetics” (University of Zurich, priority 1999, dated 2005).

The chains are these.
B1: target cyclic peptide 20 (peptide)
peptide: cyclo(PAYVRKKYA[dP])
SMILES: CC(C)[C@@H]1NC(=O)[C@H](Cc2ccc(O)cc2)NC(=O)[C@H](C)NC(=O)[C@@H]2CCCN2C(=O)[C@H]2CCCN2C(=O)[C@H](C)NC(=O)[C@H](Cc2ccc(O)cc2)NC(=O)[C@H](CCCCN)NC(=O)[C@H](CCCCN)NC(=O)[C@H](CCCNC(=N)N)NC1=O
notes: also called ^LP-A-Y-V-R / ^DP-A-Y-K-K
B2: target cyclic peptide 14 (peptide)
peptide: cyclo(PWYVRKKYW[dP])
SMILES: CC(C)[C@@H]1NC(=O)[C@H](Cc2ccc(O)cc2)NC(=O)[C@H](Cc2c[nH]c3ccccc23)NC(=O)[C@@H]2CCCN2C(=O)[C@H]2CCCN2C(=O)[C@H](Cc2c[nH]c3ccccc23)NC(=O)[C@H](Cc2ccc(O)cc2)NC(=O)[C@H](CCCCN)NC(=O)[C@H](CCCCN)NC(=O)[C@H](CCCNC(=N)N)NC1=O
notes: also called ^LP-W-Y-V-R / ^DP-W-Y-K-K
B3: target cyclic peptide 7 (peptide)
peptide: cyclo(PYIVRKKPY[dP])
SMILES: CC[C@H](C)[C@@H]1NC(=O)[C@H](Cc2ccc(O)cc2)NC(=O)[C@@H]2CCCN2C(=O)[C@H]2CCCN2C(=O)[C@H](Cc2ccc(O)cc2)NC(=O)[C@@H]2CCCN2C(=O)[C@H](CCCCN)NC(=O)[C@H](CCCCN)NC(=O)[C@H](CCCNC(=N)N)NC(=O)[C@H](C(C)C)NC1=O
notes: also called ^LP-Y-I-V-R / ^DP-Y-P-K-K
B4: target cyclic peptide 1 (peptide)
peptide: cyclo(PEIVRKKPI[dP])
SMILES: CC[C@H](C)[C@@H]1NC(=O)[C@H](CCC(=O)O)NC(=O)[C@@H]2CCCN2C(=O)[C@H]2CCCN2C(=O)[C@H]([C@@H](C)CC)NC(=O)[C@@H]2CCCN2C(=O)[C@H](CCCCN)NC(=O)[C@H](CCCCN)NC(=O)[C@H](CCCNC(=N)N)NC(=O)[C@H](C(C)C)NC1=O
notes: mimic of PDGF loop III on a diproline template; also called compound 1
B5: target cyclic peptide 10 (peptide)
peptide: cyclo(PYAVRKKAY[dP])
SMILES: CC(C)[C@@H]1NC(=O)[C@H](C)NC(=O)[C@H](Cc2ccc(O)cc2)NC(=O)[C@@H]2CCCN2C(=O)[C@H]2CCCN2C(=O)[C@H](Cc2ccc(O)cc2)NC(=O)[C@H](C)NC(=O)[C@H](CCCCN)NC(=O)[C@H](CCCCN)NC(=O)[C@H](CCCNC(=N)N)NC1=O
notes: also called ^LP-Y-A-V-R / ^DP-Y-A-K-K
B6: target cyclic peptide 13 (peptide)
peptide: cyclo(PWIVRKKPW[dP])
SMILES: CC[C@H](C)[C@@H]1NC(=O)[C@H](Cc2c[nH]c3ccccc23)NC(=O)[C@@H]2CCCN2C(=O)[C@H]2CCCN2C(=O)[C@H](Cc2c[nH]c3ccccc23)NC(=O)[C@@H]2CCCN2C(=O)[C@H](CCCCN)NC(=O)[C@H](CCCCN)NC(=O)[C@H](CCCNC(=N)N)NC(=O)[C@H](C(C)C)NC1=O
notes: also called ^LP-W-I-V-R / ^DP-W-P-K-K
B7: target cyclic peptide 17 (peptide)
peptide: cyclo(PWSVRKKSW[dP])
SMILES: CC(C)[C@@H]1NC(=O)[C@H](CO)NC(=O)[C@H](Cc2c[nH]c3ccccc23)NC(=O)[C@@H]2CCCN2C(=O)[C@H]2CCCN2C(=O)[C@H](Cc2c[nH]c3ccccc23)NC(=O)[C@H](CO)NC(=O)[C@H](CCCCN)NC(=O)[C@H](CCCCN)NC(=O)[C@H](CCCNC(=N)N)NC1=O
notes: also called ^LP-W-S-V-R / ^DP-W-S-K-K
B8: target cyclic peptide 2 (peptide)
peptide: cyclo(PEYVRKKYI[dP])
SMILES: CC[C@H](C)[C@@H]1NC(=O)[C@H](Cc2ccc(O)cc2)NC(=O)[C@H](CCCCN)NC(=O)[C@H](CCCCN)NC(=O)[C@H](CCCNC(=N)N)NC(=O)[C@H](C(C)C)NC(=O)[C@H](Cc2ccc(O)cc2)NC(=O)[C@H](CCC(=O)O)NC(=O)[C@@H]2CCCN2C(=O)[C@H]2CCCN2C1=O
notes: also called compound 2
B9: target cyclic peptide 23 (peptide)
peptide: cyclo(PASVRKKSA[dP])
SMILES: CC(C)[C@@H]1NC(=O)[C@H](CO)NC(=O)[C@H](C)NC(=O)[C@@H]2CCCN2C(=O)[C@H]2CCCN2C(=O)[C@H](C)NC(=O)[C@H](CO)NC(=O)[C@H](CCCCN)NC(=O)[C@H](CCCCN)NC(=O)[C@H](CCCNC(=N)N)NC1=O
notes: also called ^LP-A-S-V-R / ^DP-A-S-K-K
B10: target cyclic peptide 18 (peptide)
peptide: cyclo(PWKVRKKKW[dP])
SMILES: CC(C)[C@@H]1NC(=O)[C@H](CCCCN)NC(=O)[C@H](Cc2c[nH]c3ccccc23)NC(=O)[C@@H]2CCCN2C(=O)[C@H]2CCCN2C(=O)[C@H](Cc2c[nH]c3ccccc23)NC(=O)[C@H](CCCCN)NC(=O)[C@H](CCCCN)NC(=O)[C@H](CCCCN)NC(=O)[C@H](CCCNC(=N)N)NC1=O
notes: also called ^LP-W-K-V-R / ^DP-W-K-K-K
B11: target cyclic peptide 11 (peptide)
peptide: cyclo(PYSVRKKSY[dP])
SMILES: CC(C)[C@@H]1NC(=O)[C@H](CO)NC(=O)[C@H](Cc2ccc(O)cc2)NC(=O)[C@@H]2CCCN2C(=O)[C@H]2CCCN2C(=O)[C@H](Cc2ccc(O)cc2)NC(=O)[C@H](CO)NC(=O)[C@H](CCCCN)NC(=O)[C@H](CCCCN)NC(=O)[C@H](CCCNC(=N)N)NC1=O
notes: also called ^LP-Y-S-V-R / ^DP-Y-S-K-K
B12: target cyclic peptide 24 (peptide)
peptide: cyclo(PAKVRKKKA[dP])
SMILES: CC(C)[C@@H]1NC(=O)[C@H](CCCCN)NC(=O)[C@H](C)NC(=O)[C@@H]2CCCN2C(=O)[C@H]2CCCN2C(=O)[C@H](C)NC(=O)[C@H](CCCCN)NC(=O)[C@H](CCCCN)NC(=O)[C@H](CCCCN)NC(=O)[C@H](CCCNC(=N)N)NC1=O
notes: also called ^LP-A-K-V-R / ^DP-A-K-K-K
B13: target cyclic peptide 4 (peptide)
peptide: cyclo(PEAVRKKAI[dP])
SMILES: CC[C@H](C)[C@@H]1NC(=O)[C@H](C)NC(=O)[C@H](CCCCN)NC(=O)[C@H](CCCCN)NC(=O)[C@H](CCCNC(=N)N)NC(=O)[C@H](C(C)C)NC(=O)[C@H](C)NC(=O)[C@H](CCC(=O)O)NC(=O)[C@@H]2CCCN2C(=O)[C@H]2CCCN2C1=O
notes: also called compound 4
B14: target cyclic peptide 21 (peptide)
peptide: cyclo(PAWVRKKWA[dP])
SMILES: CC(C)[C@@H]1NC(=O)[C@H](Cc2c[nH]c3ccccc23)NC(=O)[C@H](C)NC(=O)[C@@H]2CCCN2C(=O)[C@H]2CCCN2C(=O)[C@H](C)NC(=O)[C@H](Cc2c[nH]c3ccccc23)NC(=O)[C@H](CCCCN)NC(=O)[C@H](CCCCN)NC(=O)[C@H](CCCNC(=N)N)NC1=O
notes: also called ^LP-A-W-V-R / ^DP-A-W-K-K
B15: target cyclic peptide 3 (peptide)
peptide: cyclo(PEWVRKKWI[dP])
SMILES: CC[C@H](C)[C@@H]1NC(=O)[C@H](Cc2c[nH]c3ccccc23)NC(=O)[C@H](CCCCN)NC(=O)[C@H](CCCCN)NC(=O)[C@H](CCCNC(=N)N)NC(=O)[C@H](C(C)C)NC(=O)[C@H](Cc2c[nH]c3ccccc23)NC(=O)[C@H](CCC(=O)O)NC(=O)[C@@H]2CCCN2C(=O)[C@H]2CCCN2C1=O
notes: also called compound 3
B16: target cyclic peptide 22 (peptide)
peptide: cyclo(PAAVRKKAA[dP])
SMILES: CC(C)[C@@H]1NC(=O)[C@H](C)NC(=O)[C@H](C)NC(=O)[C@@H]2CCCN2C(=O)[C@H]2CCCN2C(=O)[C@H](C)NC(=O)[C@H](C)NC(=O)[C@H](CCCCN)NC(=O)[C@H](CCCCN)NC(=O)[C@H](CCCNC(=N)N)NC1=O
notes: also called ^LP-A-A-V-R / ^DP-A-A-K-K
B17: target cyclic peptide 16 (peptide)
peptide: cyclo(PWAVRKKAW[dP])
SMILES: CC(C)[C@@H]1NC(=O)[C@H](C)NC(=O)[C@H](Cc2c[nH]c3ccccc23)NC(=O)[C@@H]2CCCN2C(=O)[C@H]2CCCN2C(=O)[C@H](Cc2c[nH]c3ccccc23)NC(=O)[C@H](C)NC(=O)[C@H](CCCCN)NC(=O)[C@H](CCCCN)NC(=O)[C@H](CCCNC(=N)N)NC1=O
notes: also called ^LP-W-A-V-R / ^DP-W-A-K-K
B18: target cyclic peptide 12 (peptide)
peptide: cyclo(PYKVRKKKY[dP])
SMILES: CC(C)[C@@H]1NC(=O)[C@H](CCCCN)NC(=O)[C@H](Cc2ccc(O)cc2)NC(=O)[C@@H]2CCCN2C(=O)[C@H]2CCCN2C(=O)[C@H](Cc2ccc(O)cc2)NC(=O)[C@H](CCCCN)NC(=O)[C@H](CCCCN)NC(=O)[C@H](CCCCN)NC(=O)[C@H](CCCNC(=N)N)NC1=O
notes: also called ^LP-Y-K-V-R / ^DP-Y-K-K-K
B19: target cyclic peptide 5 (peptide)
peptide: cyclo(PESVRKKSI[dP])
SMILES: CC[C@H](C)[C@@H]1NC(=O)[C@H](CO)NC(=O)[C@H](CCCCN)NC(=O)[C@H](CCCCN)NC(=O)[C@H](CCCNC(=N)N)NC(=O)[C@H](C(C)C)NC(=O)[C@H](CO)NC(=O)[C@H](CCC(=O)O)NC(=O)[C@@H]2CCCN2C(=O)[C@H]2CCCN2C1=O
notes: also called compound 5
B20: target cyclic peptide 19 (peptide)
peptide: cyclo(PAIVRKKPA[dP])
SMILES: CC[C@H](C)[C@@H]1NC(=O)[C@H](C)NC(=O)[C@@H]2CCCN2C(=O)[C@H]2CCCN2C(=O)[C@H](C)NC(=O)[C@@H]2CCCN2C(=O)[C@H](CCCCN)NC(=O)[C@H](CCCCN)NC(=O)[C@H](CCCNC(=N)N)NC(=O)[C@H](C(C)C)NC1=O
notes: also called ^LP-A-I-V-R / ^DP-A-P-K-K

Non-standard residues stand in square brackets, D forms with d.

The test deals with T1, platelet-derived growth factor β-receptor (PDGFR-β).
T1 chain: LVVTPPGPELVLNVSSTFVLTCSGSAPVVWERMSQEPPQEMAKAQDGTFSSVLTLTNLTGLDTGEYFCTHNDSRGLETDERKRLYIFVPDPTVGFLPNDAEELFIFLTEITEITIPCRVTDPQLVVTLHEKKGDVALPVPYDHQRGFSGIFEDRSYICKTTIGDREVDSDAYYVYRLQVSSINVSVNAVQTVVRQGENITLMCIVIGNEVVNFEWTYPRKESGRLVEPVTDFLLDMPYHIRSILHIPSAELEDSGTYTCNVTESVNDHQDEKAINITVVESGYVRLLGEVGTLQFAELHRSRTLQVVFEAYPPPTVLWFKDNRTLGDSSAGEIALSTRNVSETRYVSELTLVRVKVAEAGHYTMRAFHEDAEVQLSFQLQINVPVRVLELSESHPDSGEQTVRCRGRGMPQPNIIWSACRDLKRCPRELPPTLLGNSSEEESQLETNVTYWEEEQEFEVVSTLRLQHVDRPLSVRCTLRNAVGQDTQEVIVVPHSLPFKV
Put plainly: solid-phase competition, displacement of 125I-PDGF-BB from plate-immobilised PDGFR-β. In general terms: Loss of bound radioactivity is the signal in a displacement assay; it reports binding, not function.
As a reminder, the IC50 is the concentration needed to halve the response being measured. Low values mean higher potency, high ones lower potency. B1 displayed an IC50 of 2000 µM. The molecule B2 came in with an IC50 of 170 µM. As for B3, the IC50 was determined as 1500 µM. In the case of B4 it was 2200 µM; in that of B5, 2000 µM. In the case of B6 it was 260 µM; in that of B7, 800 µM. The value for B8 was 2000 µM; that for cyclo(PYWVRKKWY[dP]) (also called ^LP-Y-W-V-R / ^DP-Y-W-K-K) [target cyclic peptide 9] was 500 µM; that for B9 was 2500 µM. B10 yielded an IC50 of 500 µM. The value for B11 was 2000 µM; that for B12 was 2500 µM. In the case of B13 it was < 2500 µM; in that of B14, 2000 µM. The molecule B15 displayed an IC50 of 1500 µM. In the case of B16 it was < 2500 µM.

For B17, the IC50 stood at 800 µM. The value for B18 was 1500 µM; that for B19 was 2500 µM; that for B20 was < 2500 µM.
